Assay results published in patent US20170306038A1 (published 2017).

T1: human GITR on cells (human, UniProt Q9Y5U5 27-241)
T1 construct: also called hGITR; 293 cells stably transfected with human GITR
T1 sequence: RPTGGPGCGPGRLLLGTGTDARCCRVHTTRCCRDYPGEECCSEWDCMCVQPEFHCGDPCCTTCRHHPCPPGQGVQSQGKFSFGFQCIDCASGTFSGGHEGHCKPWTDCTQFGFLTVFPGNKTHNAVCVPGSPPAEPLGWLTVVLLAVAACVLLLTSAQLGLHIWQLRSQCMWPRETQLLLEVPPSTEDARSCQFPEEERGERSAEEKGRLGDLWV

T2: FAS
T2 construct: not shown: His tag, implied by the HisGrab nickel plate; The construct's exact limits are also wanting
T2 chain: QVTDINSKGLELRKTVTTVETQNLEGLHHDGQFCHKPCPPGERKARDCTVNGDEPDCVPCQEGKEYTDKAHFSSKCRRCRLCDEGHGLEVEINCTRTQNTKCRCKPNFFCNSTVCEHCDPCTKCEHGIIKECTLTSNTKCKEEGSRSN


Assays:
human GITR on cells = molecular target: T1, human GITR on cells; assay: FACS competition on HEK293 cells stably expressing hGITR: human GITR ligand titrated first, then 4 nM MAB7 as the competitor read out with PE anti-human
Description: The ability of MAB to block ligand binding was assessed using HEK293 NFκB reporter parental cells and hGITR stable cells were used in competition binding assays and FACS analysis. Briefly, harvested cells were plated 1×10⁶ cells per mL, 100 μL per well to a 96 well round bottom FACS plate (Corning), then resuspended in 200 μL of cold FACS buffer (1×PBS+1% FBS-HI+0.1% sodium azide) per well. […] Plates were incubated for 1 hour on ice protected from light, cells washed, then prepared 4 nM isotype control or MAB solutions were prepared and added to appropriate wells at 100 μL per well and plates were incubated for 1 hour on ice protected from light, cells washed, then PE-conjugated goat-anti-human detection antibody (Jackson ImmunoResearch) prepared at 1:100 dilution in FACS buffer was added at 100 μL per well and plates were incubated for 30 minutes on ice protected from light. Cells were washed in FACS buffer then cells were fixed with 100 μL per well of BD CytoFix (BD Biosciences) and incubated for further 15 minutes on ice protected from light.

cyno GITR (cGITR) [1] = molecular target: cyno GITR (cGITR) (cynomolgus monkey); assay: Biacore
cyno GITR (cGITR) [2] = molecular target: cyno GITR (cGITR) (cynomolgus monkey); assay: Biacore; remark: listed apart in the source
FAS = molecular target: T2, FAS; assay: specificity ELISA on bacterial lysates with TNFRSF members, HisGrab nickel plate
Description: For the specificity ELISA, a crude cell lysate was made from bacteria expressing members of the TNFRSF family. To prevent nonspecific binding to the plate 50 μL of 5% BSA was added per mL of bacterial lysate. […] The plate was then rinsed three times with PBST, then MAB was diluted to 0.5 μg/mL in 10% FBS in PBS and 100 μL was added to each well. The plate was incubated for 1 hour at room temperature and then rinsed three times with PBST. Anti-human kappa antibody (Sigma #A7164) conjugated to HRP was diluted 1:5000 in 1:1 PBST: 10% FBS in PBS and 100 μL added to each well. The plate was incubated for 1 hour at room temperature, and then washed three times with PBST. 100 μL of SureBlue TMB substrate was added to each well and the plate was incubated for about 10 min at room temperature before stopping the reaction with 100 μL/well of 2N H₂SO₄.

IC50 (read off the curve) (human GITR on cells)	fold lower binding affinity for cyno GITR against human GITR (cyno GITR (cGITR) [1]) [fold]	Kd (cyno GITR (cGITR) [2]) [nM]	Binder	binding result (FAS)
~0.2 molar ratio (Human GITR Ligand to MAB7)			recombinant human GITR ligand (GITR-L) (ligand, UniProt Q9UNG2 52-177, looked up) ETAKEPCMAKFGPLPSKWQMASSEPPCVNKVSDWKLEILQNGLYLIYGQVAPNANYNDVAPFEVRLYKNKDMIQTLTNKSKIQNVGGTYELHVGDTIDLIFNSEHQVLKNNTYWGIILLANPQFIS	
	2 to 3	1.78	MAB4 (IgG1 kappa) (antibody, V domains shown) VH: EVQLVESGGGLVQSGGSLRLSCAASGFSLSSYGVDWVRQAPGKGLEWVGVIWGGGGTYYASSLMGRFTISRDNSKNTLYLQMNSLRAEDTAVYYCAKHAYGHDGGFAMDYWGQGTLVTVSS VL: EIVMTQSPATLSVSPGERATLSCRASESVSSNVAWYQQRPGQAPRLLIYGASNRATGIPARFSGSGSGTDFTLTISRLEPEDFAVYYCGQSYSYPFTFGQGTKLEIKR	no binding (tested: 0.5 µg/mL (not on the sheet))
	2 to 3	1.87	MAB5 (IgG1 kappa) (antibody, V domains shown) VH: EVQLVESGGGLVQSGGSLRLSCAASGFSLSSYGVDWVRQAPGKGLEWLGVIWGGGGTYYTSSLMGRFTISRDNSKNTLYLQMNSLRAEDTAVYYCAKHAYGHDGGFAMDYWGQGTLVTVSS VL: EIVMTQSPATLSVSPGERATLSCRASESVSSNVAWYQQRPGQAPRLLIYGASNRATGIPARFSGSGSGTDFTLTISRLEPEDFAVYYCGQSYSYPFTFGQGTKLEIKR	no binding (tested: 0.5 µg/mL (not on the sheet))
		3.67	MAB7 (IgG1 kappa) (antibody, V domains shown, MAB4 with the glycation site KH changed to RH) VH: EVQLVESGGGLVQSGGSLRLSCAASGFSLSSYGVDWVRQAPGKGLEWVGVIWGGGGTYYASSLMGRFTISRDNSKNTLYLQMNSLRAEDTAVYYCARHAYGHDGGFAMDYWGQGTLVTVSS VL: EIVMTQSPATLSVSPGERATLSCRASESVSSNVAWYQQRPGQAPRLLIYGASNRATGIPARFSGSGSGTDFTLTISRLEPEDFAVYYCGQSYSYPFTFGQGTKLEIKR	
